Laboratory results reported in article PMC10946715.

Target: Cyc15 (Streptomyces sp. NL15-2 K)
Assay: crystal structure; X-ray crystal structure of Cyc15 at 1.7 Å, molecular replacement with an AlphaFold 2.0 search model; asymmetric unit with two molecules (Chain A and Chain B)

stoichiometry N: 2
Substance: Cyc15 (enzyme)
